The values below are quoted from earlier work in PMC10299133.

This data set addresses MET (Homo sapiens) (UniProt P08581).

Chain of MET (Homo sapiens) (P08581 25-932): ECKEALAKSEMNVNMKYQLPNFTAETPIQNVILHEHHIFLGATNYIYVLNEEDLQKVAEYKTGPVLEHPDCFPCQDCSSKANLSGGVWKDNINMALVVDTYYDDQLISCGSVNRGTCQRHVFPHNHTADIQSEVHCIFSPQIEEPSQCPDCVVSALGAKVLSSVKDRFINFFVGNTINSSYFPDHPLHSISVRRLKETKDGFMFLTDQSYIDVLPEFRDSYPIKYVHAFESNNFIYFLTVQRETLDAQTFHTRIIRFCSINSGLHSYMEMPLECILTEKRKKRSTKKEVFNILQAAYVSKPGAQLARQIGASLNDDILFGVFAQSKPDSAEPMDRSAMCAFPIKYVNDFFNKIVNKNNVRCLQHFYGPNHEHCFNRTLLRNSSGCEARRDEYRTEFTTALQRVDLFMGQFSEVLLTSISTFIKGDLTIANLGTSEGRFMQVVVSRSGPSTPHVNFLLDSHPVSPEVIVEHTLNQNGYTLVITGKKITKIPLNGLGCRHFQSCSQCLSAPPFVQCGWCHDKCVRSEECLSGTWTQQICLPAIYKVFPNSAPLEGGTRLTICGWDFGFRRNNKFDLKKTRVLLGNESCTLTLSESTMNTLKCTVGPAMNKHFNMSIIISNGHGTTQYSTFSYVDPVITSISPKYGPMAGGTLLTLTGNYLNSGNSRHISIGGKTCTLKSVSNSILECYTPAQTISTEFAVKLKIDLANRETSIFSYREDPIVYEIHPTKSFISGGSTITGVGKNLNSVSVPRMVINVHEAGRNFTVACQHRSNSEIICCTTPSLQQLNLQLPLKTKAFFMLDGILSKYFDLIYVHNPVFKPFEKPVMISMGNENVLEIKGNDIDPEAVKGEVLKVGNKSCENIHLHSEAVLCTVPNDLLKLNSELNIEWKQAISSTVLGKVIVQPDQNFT

Usually Kd stands for the concentration at which binding is half-saturated. Turning to amivantamab, the dissociation constant (Kd) was 0.04 nM.
